# Test results from patent publication US20180155451A1 (published 2018).
# T1: FcγRIIa R (human, UniProt P12318 34-217)
# T1 construct: extracellular domain; also called FcgRIIa R type; 2aR
# T1 sequence (looked up): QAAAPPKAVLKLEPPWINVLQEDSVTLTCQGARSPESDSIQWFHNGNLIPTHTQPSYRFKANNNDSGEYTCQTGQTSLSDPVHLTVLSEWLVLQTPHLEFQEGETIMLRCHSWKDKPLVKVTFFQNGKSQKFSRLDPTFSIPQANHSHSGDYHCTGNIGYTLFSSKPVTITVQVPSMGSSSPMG
# B1: GpH7-A5/GpH7-B3 variant I332_14T/GpL16-k0 (antibody, human IgG1, kappa)
# heavy 1: not shown
# heavy 2: not shown
# light: DIVMTQSPLSLPVTPGEPASISCQASESLVHSNRNTYLHWYLQKPGQSPQLLIYKVSNRFSGVPDRFSGSGSGTDFTLKISRVEAEDVGVYYCSQNTHVPPTFGQGTKVEIERTVAAPSVFIFPPSDEQLKSGTASVVCLLNNFYPREAKVQWKVDNALQSGNSQESVTEQDSKDSTYSLSSTLTLSKADYEKHKVYACEVTHQGLSSPVTKSFNRGEC
# notes: also called He Ab I332_14T
# B2: GpH7-A5/GpH7-B3 variant K326_04F/GpL16-k0 (antibody, human IgG1, kappa)
# heavy 1: not shown
# heavy 2: not shown
# light: DIVMTQSPLSLPVTPGEPASISCQASESLVHSNRNTYLHWYLQKPGQSPQLLIYKVSNRFSGVPDRFSGSGSGTDFTLKISRVEAEDVGVYYCSQNTHVPPTFGQGTKVEIERTVAAPSVFIFPPSDEQLKSGTASVVCLLNNFYPREAKVQWKVDNALQSGNSQESVTEQDSKDSTYSLSSTLTLSKADYEKHKVYACEVTHQGLSSPVTKSFNRGEC
# notes: also called He Ab K326_04F
# B3: GpH7-A5/GpH7-B3 variant I336_06M/GpL16-k0 (antibody, human IgG1, kappa)
# heavy 1: not shown
# heavy 2: not shown
# light: DIVMTQSPLSLPVTPGEPASISCQASESLVHSNRNTYLHWYLQKPGQSPQLLIYKVSNRFSGVPDRFSGSGSGTDFTLKISRVEAEDVGVYYCSQNTHVPPTFGQGTKVEIERTVAAPSVFIFPPSDEQLKSGTASVVCLLNNFYPREAKVQWKVDNALQSGNSQESVTEQDSKDSTYSLSSTLTLSKADYEKHKVYACEVTHQGLSSPVTKSFNRGEC
# notes: also called He Ab I336_06M
# B4: GpH7-A5/GpH7-B3 variant K326_08L/GpL16-k0 (antibody, human IgG1, kappa)
# heavy 1: not shown
# heavy 2: not shown
# light: DIVMTQSPLSLPVTPGEPASISCQASESLVHSNRNTYLHWYLQKPGQSPQLLIYKVSNRFSGVPDRFSGSGSGTDFTLKISRVEAEDVGVYYCSQNTHVPPTFGQGTKVEIERTVAAPSVFIFPPSDEQLKSGTASVVCLLNNFYPREAKVQWKVDNALQSGNSQESVTEQDSKDSTYSLSSTLTLSKADYEKHKVYACEVTHQGLSSPVTKSFNRGEC
# notes: also called He Ab K326_08L
# B5: GpH7-A5/GpH7-B3 variant G237_15Y/GpL16-k0 (antibody, human IgG1, kappa)
# heavy 1: not shown
# heavy 2: not shown
# light: DIVMTQSPLSLPVTPGEPASISCQASESLVHSNRNTYLHWYLQKPGQSPQLLIYKVSNRFSGVPDRFSGSGSGTDFTLKISRVEAEDVGVYYCSQNTHVPPTFGQGTKVEIERTVAAPSVFIFPPSDEQLKSGTASVVCLLNNFYPREAKVQWKVDNALQSGNSQESVTEQDSKDSTYSLSSTLTLSKADYEKHKVYACEVTHQGLSSPVTKSFNRGEC
# notes: also called He Ab G237_15Y
# B6: GpH7-A5/GpH7-B3 variant I336_18N/GpL16-k0 (antibody, human IgG1, kappa)
# heavy 1: not shown
# heavy 2: not shown
# light: DIVMTQSPLSLPVTPGEPASISCQASESLVHSNRNTYLHWYLQKPGQSPQLLIYKVSNRFSGVPDRFSGSGSGTDFTLKISRVEAEDVGVYYCSQNTHVPPTFGQGTKVEIERTVAAPSVFIFPPSDEQLKSGTASVVCLLNNFYPREAKVQWKVDNALQSGNSQESVTEQDSKDSTYSLSSTLTLSKADYEKHKVYACEVTHQGLSSPVTKSFNRGEC
# notes: also called He Ab I336_18N
# B7: GpH7-A5/GpH7-B3 variant I336_08L/GpL16-k0 (antibody, human IgG1, kappa)
# heavy 1: not shown
# heavy 2: not shown
# light: DIVMTQSPLSLPVTPGEPASISCQASESLVHSNRNTYLHWYLQKPGQSPQLLIYKVSNRFSGVPDRFSGSGSGTDFTLKISRVEAEDVGVYYCSQNTHVPPTFGQGTKVEIERTVAAPSVFIFPPSDEQLKSGTASVVCLLNNFYPREAKVQWKVDNALQSGNSQESVTEQDSKDSTYSLSSTLTLSKADYEKHKVYACEVTHQGLSSPVTKSFNRGEC
# notes: also called He Ab I336_08L
# B8: GpH7-A5/GpH7-B3 variant G237_19Q/GpL16-k0 (antibody, human IgG1, kappa)
# heavy 1: not shown
# heavy 2: not shown
# light: DIVMTQSPLSLPVTPGEPASISCQASESLVHSNRNTYLHWYLQKPGQSPQLLIYKVSNRFSGVPDRFSGSGSGTDFTLKISRVEAEDVGVYYCSQNTHVPPTFGQGTKVEIERTVAAPSVFIFPPSDEQLKSGTASVVCLLNNFYPREAKVQWKVDNALQSGNSQESVTEQDSKDSTYSLSSTLTLSKADYEKHKVYACEVTHQGLSSPVTKSFNRGEC
# notes: also called He Ab G237_19Q
# B9: GpH7-A5/GpH7-B3 variant H268_05P/GpL16-k0 (antibody, human IgG1, kappa)
# heavy 1: not shown
# heavy 2: not shown
# light: DIVMTQSPLSLPVTPGEPASISCQASESLVHSNRNTYLHWYLQKPGQSPQLLIYKVSNRFSGVPDRFSGSGSGTDFTLKISRVEAEDVGVYYCSQNTHVPPTFGQGTKVEIERTVAAPSVFIFPPSDEQLKSGTASVVCLLNNFYPREAKVQWKVDNALQSGNSQESVTEQDSKDSTYSLSSTLTLSKADYEKHKVYACEVTHQGLSSPVTKSFNRGEC
# notes: also called He Ab H268_05P
# B10: GpH7-A5/GpH7-B3 variant H268_20W/GpL16-k0 (antibody, human IgG1, kappa)
# heavy 1: not shown
# heavy 2: not shown
# light: DIVMTQSPLSLPVTPGEPASISCQASESLVHSNRNTYLHWYLQKPGQSPQLLIYKVSNRFSGVPDRFSGSGSGTDFTLKISRVEAEDVGVYYCSQNTHVPPTFGQGTKVEIERTVAAPSVFIFPPSDEQLKSGTASVVCLLNNFYPREAKVQWKVDNALQSGNSQESVTEQDSKDSTYSLSSTLTLSKADYEKHKVYACEVTHQGLSSPVTKSFNRGEC
# notes: also called He Ab H268_20W
# B11: GpH7-A5/GpH7-B3 variant G237_18N/GpL16-k0 (antibody, human IgG1, kappa)
# heavy 1: not shown
# heavy 2: not shown
# light: DIVMTQSPLSLPVTPGEPASISCQASESLVHSNRNTYLHWYLQKPGQSPQLLIYKVSNRFSGVPDRFSGSGSGTDFTLKISRVEAEDVGVYYCSQNTHVPPTFGQGTKVEIERTVAAPSVFIFPPSDEQLKSGTASVVCLLNNFYPREAKVQWKVDNALQSGNSQESVTEQDSKDSTYSLSSTLTLSKADYEKHKVYACEVTHQGLSSPVTKSFNRGEC
# notes: also called He Ab G237_18N
# Molecular target: T1, FcγRIIa R
# Test: SPR Biacore; vs GpH7-A5/GpH7-B3/GpL16-k0 =100
row,Binder,He/Con_2aR
1,B1,105 % of control
2,B2,135 % of control
3,B3,106 % of control
4,B4,137 % of control
5,B5,129 % of control
6,B6,104 % of control
7,B7,110 % of control
8,B8,121 % of control
9,B9,106 % of control
10,B10,113 % of control
11,B11,150 % of control
